Measurements: PMC9800282 (Nature Medicine, 2022)

Assays:
[1] = molecular target: T1, recombinant human αvβ3 integrin (human, UniProt P06756 31-1048; P05106 27-718); experiment: SPR; Biacore T200; LNA043 (~3,000 RU), FN1 or VTN (~500 RU) amine-coupled to CM5; integrins as analytes 0.6–10 μM, single-cycle kinetics, 37 °C, 1× HBS-N, 0.005% Tween 20, 1 mM MgCl2, 1 mM CaCl2, 2 mM MnCl2; 1:1 binding fit; settings: both partners purified
T1 construct: integrin αv subunit, human, recombinant; integrin β3 subunit, human, recombinant; also called rhαvβ3; integrin αvβ3; source: bought: R&D Systems (co-IP)

[2] = molecular target: T2, recombinant human α5β1 integrin (human, UniProt P08648 42-1049; P05556 21-728); experiment: as above; settings: both partners purified
T2 construct: integrin α5 subunit, human, recombinant; integrin β1 subunit, human, recombinant; also called rhα5β1; integrin α5β1; source: bought: R&D Systems (co-IP)

T1 sequence (P06756 31-1048, chain 1 of 2): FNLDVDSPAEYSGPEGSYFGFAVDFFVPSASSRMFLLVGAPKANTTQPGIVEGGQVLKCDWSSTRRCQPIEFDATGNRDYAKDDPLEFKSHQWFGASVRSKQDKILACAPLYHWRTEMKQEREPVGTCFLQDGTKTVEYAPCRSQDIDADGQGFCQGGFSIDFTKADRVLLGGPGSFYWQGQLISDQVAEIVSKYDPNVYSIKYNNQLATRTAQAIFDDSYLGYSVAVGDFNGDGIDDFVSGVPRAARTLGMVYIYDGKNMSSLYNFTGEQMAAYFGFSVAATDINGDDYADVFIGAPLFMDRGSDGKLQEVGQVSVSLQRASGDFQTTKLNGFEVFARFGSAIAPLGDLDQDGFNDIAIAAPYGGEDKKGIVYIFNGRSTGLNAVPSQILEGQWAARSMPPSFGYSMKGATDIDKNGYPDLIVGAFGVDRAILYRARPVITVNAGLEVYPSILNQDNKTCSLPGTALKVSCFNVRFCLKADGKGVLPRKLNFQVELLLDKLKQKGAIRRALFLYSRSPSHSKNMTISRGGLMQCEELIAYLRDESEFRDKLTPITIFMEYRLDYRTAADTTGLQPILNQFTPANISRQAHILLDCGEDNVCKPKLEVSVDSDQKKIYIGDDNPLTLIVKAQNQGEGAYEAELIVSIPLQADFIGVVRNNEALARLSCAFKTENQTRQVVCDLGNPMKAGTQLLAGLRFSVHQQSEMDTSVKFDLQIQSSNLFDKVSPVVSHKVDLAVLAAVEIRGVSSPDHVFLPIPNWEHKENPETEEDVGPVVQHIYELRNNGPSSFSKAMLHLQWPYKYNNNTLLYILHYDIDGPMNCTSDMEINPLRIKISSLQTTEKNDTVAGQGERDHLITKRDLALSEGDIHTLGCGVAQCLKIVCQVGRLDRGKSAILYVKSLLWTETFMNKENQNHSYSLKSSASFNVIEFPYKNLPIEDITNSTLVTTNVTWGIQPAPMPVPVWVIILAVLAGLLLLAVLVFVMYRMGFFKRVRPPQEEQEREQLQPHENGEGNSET
T1 sequence (P05106 27-718, chain 2 of 2): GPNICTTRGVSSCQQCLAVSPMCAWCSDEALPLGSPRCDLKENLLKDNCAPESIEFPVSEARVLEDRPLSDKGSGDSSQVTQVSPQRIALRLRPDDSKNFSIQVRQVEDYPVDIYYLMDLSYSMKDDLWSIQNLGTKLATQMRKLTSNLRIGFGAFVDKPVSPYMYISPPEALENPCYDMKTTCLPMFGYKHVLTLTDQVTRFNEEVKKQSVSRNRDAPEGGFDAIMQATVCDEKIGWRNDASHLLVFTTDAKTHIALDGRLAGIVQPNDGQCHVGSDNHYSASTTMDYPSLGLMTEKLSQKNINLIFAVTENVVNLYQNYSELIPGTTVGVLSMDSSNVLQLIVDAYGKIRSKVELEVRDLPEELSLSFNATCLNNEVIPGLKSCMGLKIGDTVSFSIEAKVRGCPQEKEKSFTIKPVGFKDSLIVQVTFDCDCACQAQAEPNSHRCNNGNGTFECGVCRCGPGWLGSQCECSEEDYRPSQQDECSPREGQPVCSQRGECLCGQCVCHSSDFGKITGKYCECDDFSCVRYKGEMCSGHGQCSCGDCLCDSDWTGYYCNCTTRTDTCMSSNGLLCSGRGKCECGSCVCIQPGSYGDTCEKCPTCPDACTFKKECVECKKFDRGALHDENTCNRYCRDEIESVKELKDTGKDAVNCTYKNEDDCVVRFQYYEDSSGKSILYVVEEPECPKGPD

Kd [1]: ~7.9 µM
Kd [2]: ~1.5 µM
B1: LNA043 (domain or fragment)
chain: IPAECTTIYNRGEHTSGMYAIRPSNSQVFHVYCDVISGSPWTLIQHRIDGSQNFNETWENYKYGFGRLDGEFWLGLEKIYSIVKQSNYVLRIELEDWKDNKHYIEYSFYLGNHETNYTLHLVAITGNVPNAIPENKDLVFSTWDHKAKGHFNCPEGYSGGWWWHDECGENNLNGKYNKPRAQSKPERRRGLSWKSQNGRLYSIKSTKMLIHPTDSESFE
